# Test results reported in patent US20050008573A1, “Peptides conjugates, their derivatives with metal complexes and use thereof for magnetic resonance imaging (mri)” (priority 2001, published 2005).
# Conditions: gadolinium complex
substance,measurement,value
gadolinium complex of (DTPAGLU)4(Lys)2Lys-Gly-Vapreotide [Example 3],relaxivity,15 mM⁻¹ s⁻¹
